Data from patent US5851983.
No end group written: not given here.

Target: Polymorphonuclear leukocyte elastase from human sputum (EPC Co.; Funakoshi Yakuhin) (human) (UniProt P08246)

- IC50: 0.3 µM
B1: by-product oligomer formed in Example 17 (peptide)
chain: RKPGKCPVTYGQCLMLNPPNFCEMDGQCKRDLKCCMGMCGKSCVSPVKA
modifications: also: oligomer formed during refolding, number of chains and linkages not given here
